Results taken from patent US20100322948A1, “Bone morphogenetic protein (BMP)-binding domains of proteins of the repulsive guidance molecule (RGM) protein family and functional fragments thereof, and use of same” (ABBOTT GMBH & CO. KG, priority 2007, published 2010).
Entries after “also recorded” stand apart in the source; their conditions may differ.

Key:
[1] = target: T1, BMP-4 (Homo sapiens, UniProt P12644); experiment: In vitro interaction test, variant B: immobilized RGMA-Fc fusion proteins, detection of BMP-4 binding
T1 construct: purchased R&D Systems 314-BM
T1 sequence (P12644 293-408): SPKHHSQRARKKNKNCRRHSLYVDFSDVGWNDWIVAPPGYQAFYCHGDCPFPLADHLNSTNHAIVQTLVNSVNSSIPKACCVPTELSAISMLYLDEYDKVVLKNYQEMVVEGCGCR
Protocol: (§1) Test Method 4: In Vitro Interaction Test for Determining the Interaction between RGMA and BMP-2 and -4
(§2) The interaction tests were carried out as described below:
Variant B: Immobilization of Various RGMA-Fc Fusion Proteins and Detection of the Binding of the BMP-2/ or -4 Protein
Immunoplate Cert. MaxiSorp F96 (Nunc, 439454)
RGMA-Fc fragments • Volume used: 2.5 μg/mL in Na2CO3; addition: 50 μL per well • 1 hour at 37° C. in damp chamber
3. Washing step: • Wash 3× with PBS/0.02% Tween 20
4. Blocking: • 3% BSA in PBS/0.02% Tween, 1 hour at 37° C. in damp chamber • Addition : 200 μL per well, incubation: 1 hour at 37° C. in damp chamber
Recombinant human BMP-2, Catalog No.: 355-BM, Company: R&D Systems; or
Recombinant human RGM A, R&D Systems; Prod. #2495-RM,
recombinant human BMP-4, Catalog No.: 314-BM, Company: R&D Systems;
Concentration in each case: 10 μg/mL
Dilution steps: in each case 1:2 with PBS/0.02% Tween 20
(§3) 6. Washing step: • Wash 3× with PBS/0.02% Tween 20
Anti-human BMP-4 biotin antibody; Catalog No.: BAM7572, 1:200 in 1% BSA-PBS-T
8. Washing step: • Wash 3× with PBS/0.02% Tween 20
10. Washing step: • Wash 3× with PBS/0.02% Tween 20
ImmunoPure TMB substrate kit; (Pierce, #34021) • Development period: approximately 1-30 minutes • 1:1 mixture of […]; addition: 50 μL per well
12. Stop: • 2.5 M H2SO4; addition: 50 μL per well
The test was conducted according to test method 4, variant B above, with immobilization of the fusion proteins (1 mg/mL). The binding of BMP-4 was detected using anti-BMP-4 biotin antibodies.
The test was conducted according to test method 4, variant B above, with immobilization of the fusion proteins (1 mg/mL). The binding of BMP-4 and -2 was detected using anti-BMP-4 and anti-BMP-2 biotin antibodies, respectively.

[2] = target: T1, BMP-4; experiment: In vitro interaction test, variant A: immobilized BMP-4, detection of binding of RGMA-Fc fusion proteins; settings: Working Example 3, FIG. 5
Protocol: as §1, §2
Variant A: Immobilization of the BMP-2/ or -4 Protein and Detection of the Binding of Various RGMA-Fc Fusion Proteins
1. Plate: • Immunoplate Cert. MaxiSorp F96 (Nunc, 439454)
Recombinant human BMP-2, Catalog No.: 355-BM, Company: R&D Systems; Recombinant human RGM A, R&D Systems; Prod. #2495-RM, or
Recombinant human BMP-4, Catalog No.: 314-BM, Company: R&D Systems; • Concentration: 10 μg/mL • Volume used: 2.5 μg/mL in Na2CO3; addition: 50 μL per well • 1 hour at 37° C. in damp chamber
3. Washing step: • Wash 3× with PBS/[…] Tween 20
4. Blocking: • 3% BSA in PBS/0.02% Tween, 1 hour at 37° C. in damp chamber; addition: 200 μL per well
RGMA-Fc fragments, • 1 μg/mL initial concentration, then dilution down to 1:2 using PBS/0.02% Tween20 • […] • 1 hour at 37° C. in damp chamber
as §3
Biotin anti-human Fc (R&D-Systems), Catalog No.: 709065; 1 mg/mL; • 1:200 in 0.6% BAS/PBS-T (0.02% Tween) • Addition: 50 μL per well • 1 hour at 37° C. in damp chamber
8. Secondary antibody: Strep. POD (Roche); Catalog No.: 11089153001 • 500 U; 1:5000 in 0.6% BAS/PBS-T (0.02% Tween) • Addition: 50 μL per well • 1 hour at 37° C. in damp chamber
9. Washing step: • Wash 3× with PBS/0.02% Tween 20
ImmunoPure TMB substrate kit; Pierce, #34021 • Development period: approximately 1-30 minutes • 1:1 mixture of […]; addition: 50 μL per well
11. Stop: • 2.5 M H2SO4; addition: 50 μL per well
The test was conducted according to test method 4, variant A above, with immobilization of BMP-4 (1 mg/mL). The binding of the fusion proteins was detected using anti-human-Fc or anti-Myc anti-rabbit (Invitrogen) antibodies.
The test was conducted according to test method 4, variant A above, with immobilization of BMP-4 (1 mg/mL). The binding of the fusion proteins was detected using anti-human-antibodies.

[3] = test system: BMP signalling (rhBMP-2-induced luciferase activity); experiment: BRE-Luc assay on BMP signalling in BMP-responsive C3H10-B12 cells; format: cell-based
Protocol: Evaluation of the Agonistic or Antagonistic Effect of h RMG A on BMP Signalling using BRE-Luc Assay
a) Materials: • Three compounds were provided at 200 μg/ml.
fragment #788 (IgK/hRGM A 47-422/Xa cleavage site/Fc) • recombinant h BMP-2 (from CHO cells; #355-BM) and monoclonal anti-human BMP2/4 antibodies (#MAB3552) were obtained from R&D Systems Europe, Lille, France • Bright-Glo Luciferase assay kit were purchased from Promega
All experiments were performed in triplicate, and were repeated at two separate times.

- binding of BMP-4 ([1]; Working Example 1, FIG. 3, anti-BMP-4 biotin antibodies): more significant binding
- binding of BMP-4 ([1]; Working Example 2, FIG. 4, anti-BMP-4 biotin antibodies): more significant binding
- binding to immobilized BMP-4, comparison among fragments [2]: most strongly
B1: fragment #786: Fc fusion protein of human RGM A amino acids 47-168 (protein)
chain: PCKILKCNSEFWSATSGSHAPASDDTPEFCAALRSYALCTRRTARTCRGDLAYHSAVHGIEDLMSQHNCSKDGPTSQPRLRTLPPAGDSQERSDSPEICHYEKSFHKHSATPNYTHCGLFGD
modifications: left off: small tags and cut ends; a dimerising Fc or GST
- binding to immobilized BMP-4 ([2]; detection anti-human-Fc or anti-Myc): Significant concentration-dependent binding
- effect on BMP-2-induced luciferase activity ([3]; combined with rhBMP-2 at 50 ng/ml, 24 h, listed as #786): dose-dependent inhibition; also recorded: inhibited the rhBMP-2-induced activity in a dose dependent fashion
- inhibition of the rhBMP-2-induced activity ([3]; compounds at 10 μg/ml, rhBMP-2 at 50 ng/ml): 88%
- equivalent dose for 50% of inhibition (ED50) ([3]; rhBMP-2 at 50 ng/ml): 0.1 µg/mL
